This data set in a line: soluble on expression in E. coli; label from the status in PepcDB or PDB records.
For the sequence “MAKWGEGDPRWIVEERADATNVNNWHWTERDASNWSTEKLKTLFLAVRVENEEGKCEVTEVNKLDGEASINNRKGKLIFFYEWTIKLNWTGTSKSGVQYKGHVEIPNLSDENSVDEVEISVSLAKDEPDTNLVALMKEDGVKLLREAVGIYISTLKTEFTQGMILPTVNGESVDPVGQPALKTETCKAKSAPSKSQAKPVGVKIPTCKITLKETFLTSPEELYRVFTTQELVQAFTHAPAALEADRGGKFHMVDGNVTGEFTDLVPEKHIAMKWRFKSWPEGHFATITLTFIDKNGETELCMEGRGIPAPEEERTRQGWQRYYFEGIKQTFGYGARLF”, the “soluble on expression in E. coli” value is listed as “soluble”.

Consider “MAKYCLKKTSKRVSCAKRYKIEKKVRDHNRKVKKEAKKNGTTNKKEKTISVPNSCPFKEEILVQAEQEREKIKVRQEAAKEAAKIHRIEKRKNNLPANFESMVAKASKQGTEFDKKVASAAEHEKFNTLDDKTIKAYASEVRKTVEIADVIIQVLDARDPLGSRSKSVEDQVLKGGKRLVLLLNKIDLVPRENVQKWLEYLRGQFPTIAFKASTQEQKSNIGRFNSAILNNTETSKCVGADIVMKILANYCRNKDIKTSIRVGVVGFPNVGKSSVINSLKRRKACNVGNLPGITKEIQEVELDKNIRLIDSPGVILVSQKDLDPIEVALKNAIRVDNLLDPIAPVHAILRRCSKETIMLHYNLADFNSVDQFLAQLARRIGKLRRGARPDVNAAAKRVLNDWNTGKLRYYTHPPEQGTAKEDIVVPAEVVSQFSKEFDIDAIAEEQNQIVEGLPMESDIIAPHNSDEEEDDDDEMETDVNEKKQTVTSGRKVKGPTKDDDKPVLPESLALEGNVQLNKLIKTAIKKQKKKSKKTANRADKLSDSLGNMLGGDAMEM”, for which the “soluble on expression in E. coli” value is recorded as “not soluble”.

On to “MALAEEDVHMIIKQVLDEVVGASTQYTHKDSVQWNQKAVEQITKKLVAAGKPYKYVVTSSFLQISSGSGLNVSTISYWNKVTDSSYMYRWEAKTMLAIVYVFAIAI”, for which the “soluble on expression in E. coli” value was “not soluble”.

In the case of “MALDLTAYFDRINYRGATDPTLDVLQDLVTVHSRTIPFENLDPLLGVPVDDLSPQALADKLVLRRRGGYCFEHNGLMGYVLAELGYRVRRFAARVVWKLAPDAPLPPQTHTLLGVTFPGSGGCYLVDVGFGGQTPTSPLRLETGAVQPTTHEPYRLEDRVDGFVLQAMVRDTWQTLYEFTTQTRPQIDLKVASWYASTHPASKFVTGLTAAVITDDARWNLSGRDLAVHRAGGTEKIRLADAAAVVDTLSERFGINVADIGERGALETRIDELLARQPGADAP”, the “soluble on expression in E. coli” value is recorded as “not soluble”.

“MALGGGTFVTQNKILPGSYINFISAKRATSSLSDRGIVAIPLELDWGIDEDVFQVTSDDFEKYSVKYFGYDYTHEKLKGLRDLFKNIRLGYFYKLNKGVKASCTIATAKYSGIRGNDLKVTVTTNIDDNAKFDVVTLLDNKKVDTQIAKVITDLQDNDYITWKKDATLEASAGLVFTGGTNGEAVTGAEYQAFLDKIESYSFNALGCLATTTEIKSLFVEFTKRMRDKVGAKFQTVLYKKSDADYEGVVSVENKIKEIGLVESSLIYWAAGAIAGCDINKSNTNKKYDGEFDVDVNYTQIQLEEALKTGKFIFHKVGDEVHVLEDINTFVSFTDDKNDDFSSNQSVRVLDQIANDIATLFNEKYLGKVPNDKAGRISFWNDVVKHHKELENIRAIEDFKTDDVSVELGNDKKTVIVSDAVKVINAMSKLYMTVSVNLEHHHHHH”: the “soluble on expression in E. coli” value is “soluble”.

For “MALHDENVVWHSHPVTVQQRELHHGHRGVVLWFTGLSGSGKSTVAGALEEALHKLGVSTYLLDGDNVRHGLCSDLGFSDADRKENIRRVGEVANLMVEAGLVVLTAFISPHRAERQMVRERVGEGRFIEVFVDTPLAICEARDPKGLYKKARAGELRNFTGIDSVYEAPESAEIHLNGEQLVTNLVQQLLDLLRQNDIIRS”, the “soluble on expression in E. coli” value is “soluble”.

On to “MALLEICCYSMECALTAQRNGADRIELCAAPKEGGLTPSFGVLRSVREHITIPVHPIIRPRGGDFYYTDGEFAAMLEDIRLVRELGFPGLVTGVLTVDGDVDMSRMEKIMAAAGPLAVTFHRAFDMCANPFNALKNLADAGVARVLTSGQKADAAQGLSIIMELIAQGDAPTIMAGAGVRANNLQNFLDAGVREVHSSAGVLLPSPMRYRNQGLSMSADIQADEYSRYRVEGAAVAEMKGIIVRHQAK”, for which the “soluble on expression in E. coli” value is “not soluble”.

For the sequence “MALLTSKLRYLLLFYAVFQAAQFGLRWKSYDISPKQFKTIAGKAAAAPTISQSISTLTSGMRTYYEPIMPSHFEWHAIQLGGLTLRMYPMLTAFTEFAAAFSAPFPTSGRPGLHWANTTCTVLKGKVSRFNDGTQDETSENFASGAAFRHGQFESHVYSFEKDTYVACYGRGFLPLSSTVHVTSGISLGEPLSVIQFYMKQAYNYWNNLSHTLYRVFQHYKARATGEL”, the “soluble on expression in E. coli” value was “not soluble”.

With “MALTEERVLEALRTVMDPELGKDLVSLGMVDEVRVEGGRVDLLVNLTTPACPLKGQIEADIRRALAPLGAEEVRVRFGGGVRPPERYALPGVKHVVAVASGKGGVGKSTVAANLALALSREGAKVGLLDADLYGPSQAKMFGLEGMRLKVDQDRRILPLEAHGIKVLSIANIVPPGQALAWRGPILHGTLKQFLQDVNWGELDYLVVDLPPGTGDVQLSLSQLTQVSGGVIVTTPQEVALIDAERAADMFRKLQVPVLGVLENMSAFLCPHCGKPTPIFGEGGGRRLAERLKTRFLGEIPLTLALRESGDRGVPVLAQDPEGLEAQAFLKAARELAAALSVQTFLPLPMA”, the “soluble on expression in E. coli” value is listed as “soluble”.

With “MAMIKVDQHYFELIENYRECFNEEQFIARYSDILDKYDYIVGDYGYDQLRLKGFYKDSNKKAEMSKRFSNIQDYIFEYCNFGCPYFVLRHLSKQEVKKLIEEVHPSDVIDDDNKLQDVKIKPTIQDTEHLEHHHHHH”, the “soluble on expression in E. coli” value is reported as “soluble”.

For “MAMQAAKRANIRLPPEVNRILMIRNLPYKITAEEMYDIFGKYGPIRQIRVGNTPETRGTAYVVYEDIFDAKNACDHLSGFNVCNRYLVVLYYNANRAFQKMDTKKKEEQLKLLKEKYGINTDPPK”, the “soluble on expression in E. coli” value was “soluble”.

Regarding “MAMSNMTYNNVFDHAYEMLKENIRYDDIRDTDDLHDAIHMAADNAVPHYYADIFSVMASEGIDLEFEDSGLMPDTKDVIRILQARIYEQLTIDLWEDAEDLLNEYLEEVEEYEEDEE”, the “soluble on expression in E. coli” value is reported as “soluble”.

With “MAMSTKLSVAIHILSLIETGPQEQVTSEYIASSVNTNPVVVRRLMSQLKKAGLIHSMRGANKNTLLKKPEEISLYEIYTAVELEREIFNIHQNPNPNCSVGANIQSVLETEFTKVQQKMEEELKSITLADVIHEIEVKRDK”, the “soluble on expression in E. coli” value was “not soluble”.

For “MANAADDRRPKYQRIADTLREAIRSGEYGPGDRLPGENDLMATHGVARMTARQALSVLRDEGVAEARKGAGVFVREFRPLRRRGIQRLARQQWGNGRSIWSADIEDRSLDVDQVTVSEEAAPDGVAAVLDLADGETVCVRRRRFVLDGKPVLLATSYLPAALVAGSAITQEDTGKGGTYARLAELGHGPVHFREEIRSRMPSKAEASQLSVAAGTPVILICRTAFTDEGRAVEINEMTLDAASYVLEYDFDA”, the “soluble on expression in E. coli” value is “not soluble”.

“MANSSVELRVSEAYPRDVGRKIVRIDRQTAARLGVEVGDFVKVSKGDRSVVAVVWPLRPDDEGRGIIRMDGYLRAALGVTVGDTVTVEKAEKVEPASKVVLAPTEPIRFGRDFVEYVKEFLLRKPISRGETIIVPVLEGLPLVVVSTQPAHFVYVTEATEVEIREKPVREEIERLRGVPKVTWEDIGDLEEAKERIREIVELPMKHPEIFKHLGIEPPKGILLYGPPGTGKTLLAKALANEIGAYFISINGPEIMSKYYGESEQRLREIFKEAEENAPSIIFIDEIDAIAPKREEVTGEVEKRVVAQLLTLMDGLKERGRVIVIGATNRPDAIDPALRRPGRFDREIEIRPPDKRARAEILKVHTRNMPLAEDVDLDKLAEMTHGYTGADLAALAKEAAMAALRRFIREGKINFEAKEIPATVLKELKVTMKDFMEAMKMIRPTLIREIYVEVPEVRWSDIGGLEEAKQALREAVEWPLKHPEIFEKMGIRPPRGVLLFGPPGTGKTLLAKAVATESGANFIAVRGPEILSKWVGESERAIRKIFERARQAAPAVVFFDEIDAIAPARGARFDTSGVTDRIVNQMLAEMDGIQPLSNVVVIGATNRPDILDPALLRPGRFDRLIYVPPPDKEARKEIFKIHTKKVPLGEDVDLEKLAEMTEGYTGADIEAVVREAVMAKLREKLEVGKVEMRHFLEALKKVPPSLTKEDILRYERLAKELKKLTLG”: the “soluble on expression in E. coli” value is “soluble”.

Turning to “MANVNTFSIVKNVKLDLGIEDDNQDQLLEMLLNRITDHFKANYGVLEIDNAFSFVLEDCLIARFNRRGSERAKTEEVEGHKTTYYDHLNEFEPYDAMIMAKLNLIKDKSRKGGLYFL”, the “soluble on expression in E. coli” value is on record as “not soluble”.

Turning to “MAPIRRSSRLAERYDAIESKKRSLKRLEEQIKAEEEQFSDKMKQLEDEIKIKEQVITMFKRKTVRREWMRNSRQATTNINIAQIESLKLQLEEGEKDIAEAEKQAEPTTPQQEAELSETFKQMVRDRMKVKDVDEKLLQQYMKKENVEFEWRSCFICTMEYSRTDKNLHPIILNCGHNLCRSCINKLTGNGIVKCPFDRLDTRVRVTGLPRNLALINL”, the “soluble on expression in E. coli” value is listed as “not soluble”.

Regarding “MAPKRALPTEQVVAQLLGDDMGPSGPRKRERLNHLSQEEKMDRRKLKNRVAAQNARDKKKERSAKIEDVMRDLVEENRRLRAENERLRRQNKNLMNQQNESVMYMEENNENLMNSNDACIYQNVVYEEEVVGEVAPVVVVGGEDRRAFESAAFINEPQQWEQARSTSINNNISNQLRRMDSKKNNTISVDMYLTIISILCNHMDRNKKMDTSNKSSNISRAQAESSIDSLLATLRKEQTVMQRLVQADPCTHLQKRVKHFRRIP”, the “soluble on expression in E. coli” value was “soluble”.

For the sequence “MAPKRLMVEHALARAKEAAGLADVKKVYTYYGDEACTVFIGRTKQGKAVVVWVPEKKGSVVVKGVDSGISEAEARAILQRDRRPRRIIDATLGMEKGVPLWELTYIDAEGRYSFYYLHFADGAFLKRYSFQQ”, the “soluble on expression in E. coli” value is “not soluble”.

On to “MAPLETIYDESLNKSADSIDDKKWSKLFPRIVSDPDRSSNFMTRAIYVAFSAVLRNRNILGQEYFTKNYITEKLKCMTLCFRNPRSNQIAQLLRNAGDATKDGFLKEVSLVITNNEGDLEAIEVFSMKFIYFENGGVVARLSTDKNGQEDPHFAKLAQLVYEGGDSVRDQMVTIVRSVQFLCTKVLEPLPEEFTANFRLEYTNDAPSNFRIDGFEDSSTFYTLPDDIQSATIGHLRPGCHAANMECWSMLMSDSYEAELTLKRHLDKVSDRHGFNPVNVLYKSFNSEDSDTSLSQATTESVNDQGGNETSPVDDITESLEKAQMSPIQTRPTTRRGADGSKTRSSPYSRSCK”, for which the “soluble on expression in E. coli” value is listed as “not soluble”.

“MAPPTPHLAVRGSDGTLLLHGPPNCQESSAFQRDDRQGRYMTFSNDGTLFAWCNGSQVTVLKVPSGDLVKSFDLPKTTALEFSPLNKVLATWQQYTKTQDNPQGEANLQLWDLQTGACMKAFYQKKMTGWCPSWADDESISVRNVNNELHFFENNNFETIANKLHLQKVSEFALSPGSQPSKVAVYVPGSKGAPSFVRLYQYPNFGGPTCALANKSFFKADKVNMLWNKKATAVLVTASTEVDKTGASYYGEQTLHYVATNGESAVVQLPKNGPIYDVSWSPNSTEFCVVYGFMPAKATVFNNKCESVFDFGTGPRNAAFYSPQGHILVLAGFGNLRGQMEVWDVKKYKQVSKPQAEDTTHFSWCPDGEHIVTATCSPRLRASNGYKIWHYTGTVLYKHETPSGKELWEVLWQPFPAGVFPERAVKYQALPSELGSTEAKPAQAYRPPALRNKPQTASSKLHEEEPPQNMKPGAAGEKQPSKAALKNQKRREAKKAAKQENKPDEAPPPAADPAPVSHVTSSCGDPETDKKIKNLKKKLKAIDELKEQQAAGKVMQKNQLEKMQKEAQLLKELEDLELGL”: the “soluble on expression in E. coli” value is “soluble”.

The record behind these values is the DeepSol protein solubility set.
